Source: patent publication US20090305255

What was measured:
[1] = target: H3 histone, P68431
[2] = target: SAKI (Substrate of AIM-1 kinase)
SAKI (Substrate of AIM-1 kinase), sequence (chain, as listed by the source): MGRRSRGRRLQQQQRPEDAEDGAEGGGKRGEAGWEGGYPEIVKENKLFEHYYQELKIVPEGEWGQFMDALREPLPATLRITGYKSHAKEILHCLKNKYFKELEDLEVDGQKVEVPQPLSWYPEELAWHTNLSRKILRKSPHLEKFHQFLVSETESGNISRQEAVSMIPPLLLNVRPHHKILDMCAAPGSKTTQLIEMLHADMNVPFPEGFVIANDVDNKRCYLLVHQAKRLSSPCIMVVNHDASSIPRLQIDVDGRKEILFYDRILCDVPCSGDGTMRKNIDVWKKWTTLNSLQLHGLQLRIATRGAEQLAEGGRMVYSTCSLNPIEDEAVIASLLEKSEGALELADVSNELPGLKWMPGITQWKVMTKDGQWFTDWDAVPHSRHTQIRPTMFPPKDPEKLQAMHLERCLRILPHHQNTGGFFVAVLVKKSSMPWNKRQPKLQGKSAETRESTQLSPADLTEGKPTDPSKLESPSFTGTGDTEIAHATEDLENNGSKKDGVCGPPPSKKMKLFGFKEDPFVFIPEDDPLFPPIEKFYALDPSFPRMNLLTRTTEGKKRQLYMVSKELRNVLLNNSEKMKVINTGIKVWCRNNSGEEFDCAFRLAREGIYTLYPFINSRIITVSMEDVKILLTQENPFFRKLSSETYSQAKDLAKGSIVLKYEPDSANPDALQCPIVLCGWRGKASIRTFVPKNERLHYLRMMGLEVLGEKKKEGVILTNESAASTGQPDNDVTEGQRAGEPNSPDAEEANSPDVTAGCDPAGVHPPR

Row | Protein | in-vitro phosphorylation experiments [1] | immunoblotting with the anti-H3 histone Ser-10 phosphorylation site antibody after expression of the AIM-1 kinase-deficient mutant protein in HeLa [2]
1 | Aik (protein) MDRSKENCISGPVKATAPVGGPKRVLVTQQFPCQNPLPVNSGQAQRVLCPSNSSQRIPLQAQKLVSSHKPVQNQKQKQLQATSVPHPVSRPLNNTQKSKQPLPSAPENNPEEELASKQKNEESKKRQWALEDFEIGRPLGKGKFGNVYLAREKQSKFILALKVLFKAQLEKAGVEHQLRREVEIQSHLRHPNILRLYGYFHDATRVYLILEYAPLGTVYRELQKLSKFDEQRTATYITELANALSYCHSKRVIHRDIKPENLLLGSAGELKIADFGWSVHAPSSRRTTLCGTLDYLPPEMIEGRMHDEKVDLWSLGVLCYEFLVGKPPFEANTYQETYKRISRVEFTFPDFVTEGARDLISRLLKHNPSQRPMLREVLEHPWITANSSKPSNCQNKESASKQS | both AIM-1 and Aik phosphorylated H3 histone | –
2 | AIM-1 (Aurora and Ipl1-like midbody-associated protein) (protein) MAQKENSYPWPYGRQTAPSGLSTLPQRVLRKEPVTPSALVLMSRSNVQPTAAPGQKVMENSSGTPDILTRHFTIDDFEIGRPLGKGKFGNVYLAREKKSHFIVALKVLFKSQIEKEGVEHQLRREIEIQAHLHHPNILRLYNYFYDRRRIYLILEYAPRGELYKELQKSCTFDEQRTATIMEELADALMYCHGKKVIHRDIKPENLLLGLKGELKIADFGWSVHAPSLRRKTMCGTLDYLPPEMIEGRMHNEKVDLWCIGVLCYELLVGNPPFESASHNETYRRIVKVDLKFPASVPMGAQDLISKLLRHNPSERLPLAQVSAHPWVRANSRRVLPPSALQSVA | both AIM-1 and Aik phosphorylated H3 histone | there was a protein that is seemingly phosphorylated by AIM-1 in the region close to 100 kDa
